Results taken from patent publication US20260139240A1.

How the values were obtained:
[1] = target: Human α1-acid glycoprotein (AGP) (human) (UniProt P02763); assay: SPR (Biacore T100), SubB immobilised
[2] = target: Human α1-acid glycoprotein (AGP) (human) (UniProt P02763); assay: SPR (Biacore […]), […], single cycle kinetics

Wild type SubB (subtilase cytotoxin B subunit) (from UniProt Q6EZC3 24-141) (other; other documents disagree on this pair)
fold reduced binding affinity compared to bovine AGP [1]: 13 fold | Kd [2]: 2120 nM
